In patent US9453838B2, “Methods for making microarrays and their uses” (Asociación Centro De Investigación Cooperative En Bioma …, priority 2013, dated 2016):

What was measured:
Settings in all cases: RNAse-B 50 μg/mL in PBS
[1] = target: T1, GNA (Galanthus nivalis agglutinin) (Galanthus nivalis, UniProt P30617); assay: Lectin array, RNAse B binding by fluorescence scanning and MALDI-Tof MS
T1 sequence (P30617 20-128): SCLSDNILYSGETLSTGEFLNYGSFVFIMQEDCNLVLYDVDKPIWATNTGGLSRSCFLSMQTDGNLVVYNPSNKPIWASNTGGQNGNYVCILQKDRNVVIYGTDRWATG
Protocol: (§1) Slides were stored at −20° C.

[2] = system: WGA (Wheat Germ Agglutinin); assay: as above
Protocol: as §1

ConA = ConA (Canavalia ensiformis, UniProt P02866)
Protocol: 0.4-0.3 mg/mL (glyco)protein solutions (Concanavalin A, ConA; WGA; and Galanthus nivalis agglutinin, GNA, lectins and RNAse B glycoprotein) were prepared in PBS, and 50 drops (˜0.3 nL per drop) were deposited onto the surface with a dot pitch of 750×750 μm. Slides were then incubated overnight at room temperature in 90% humidity, washed with PBS, quenched with ethanolamine and dried by purging Ar. Slides were stored at −20° C.
A lectin array of ConA, GNA and WGA was printed onto slides as described above, and Cy3-labelled or unlabelled RNAse-B (50 μg/mL in PBS) was added to wells. RNAse B binding and lectin modifications were analyzed by fluorescence imaging and MALDI-Tof MS (FIG. 12).

B1: RNAse B: RNAse B glycoprotein, glycoforms presenting mannose oligosaccharides M5-M9 (protein, UniProt P61823 27-150, looked up)
Ribonuclease pancreatic: KETAAAKFERQHMDSSTSAASSSNYCNQMMKSRNLTKDRCKPVNTFVHESLADVQAVCSQKNVACKNGQTNCYQSYSTMSITDCRETGSSKYPNCAYKTTQANKHIIVACEGNPYVPVHFDASV
modifications: glycoform B
Which “binding to GNA” value [1] does the source give for B1 here?
The value was “binding”.

And the “interaction with WGA” value [2]?
Its value is “no interaction”.

And the “binding to ConA” value (ConA)?
Its value is “binding”.
